From paper PMC3377666 (2012)

B1: DNA polymerase delta core (protein)
chain 1: MDGKRRPGPGPGVPPKRARGGLWDDDDAPRPSQFEEDLALMEEMEAEHRLQEQEEEELQSVLEGVADGQVPPSAIDPRWLRPTPPALDPQTEPLIFQQLEIDHYVGPAQPVPGGPPPSRGSVPVLRAFGVTDEGFSVCCHIHGFAPYFYTPAPPGFGPEHMGDLQRELNLAISRDSRGGRELTGPAVLAVELCSRESMFGYHGHGPSPFLRITVALPRLVAPARRLLEQGIRVAGLGTPSFAPYEANVDFEIRFMVDTDIVGCNWLELPAGKYALRLKEKATQCQLEADVLWSDVVSHPPEGPWQRIAPLRVLSFDIECAGRKGIFPEPERDPVIQICSLGLRWGEPEPFLRLALTLRPCAPILGAKVQSYEKEEDLLQAWSTFIRIMDPDVITGYNIQNFDLPYLISRAQTLKVQTFPFLGRVAGLCSNIRDSSFQSKQTGRRDTKVVSMVGRVQMDMLQVLLREYKLRSYTLNAVSFHFLGEQKEDVQHSIITDLQNGNDQTRRRLAVYCLKDAYLPLRLLERLMVLVNAVEMARVTGVPLSYLLSRGQQVKVVSQLLRQAMHEGLLMPVVKSEGGEDYTGATVIEPLKGYYDVPIATLDFSSLYPSIMMAHNLCYTTLLRPGTAQKLGLTEDQFIRTPTGDEFVKTSVRKGLLPQILENLLSARKRAKAELAKETDPLRRQVLDGRQLALKVSANSVYGFTGAQVGKLPCLEISQSVTGFGRQMIEKTKQLVESKYTVENGYSTSAKVVYGDTDSVMCRFGVSSVAEAMALGREAADWVSGHFPSPIRLEFEKVYFPYLLISKKRYAGLLFSSRPDAHDRMDCKGLEAVRRDNCPLVANLVTASLRRLLIDRDPEGAVAHAQDVISDLLCNRIDISQLVITKELTRAASDYAGKQAHVELAERMRKRDPGSAPSLGDRVPYVIISAAKGVAAYMKSEDPLFVLEHSLPIDTQYYLEQQLAKPLLRIFEPILGEGRAEAVLLRGDHTRCKTVLTGKVGGLLAFAKRRNCCIGCRTVLSHQGAVCEFCQPRESELYQKEVSHLNALEERFSRLWTQCQRCQGSLHEDVICTSRDCPIFYMRKKVRKDLEDQEQLLRRFGPPGPEAW
chain 2: not shown
B2: DNA polymerase delta core+p12 (protein)
chain 1: B1 chain 1
chain 2: not shown
chain 3: MGRKRLITDSYPVVKRREGPAGHSKGELAPELGEEPQPRDEEEAELELLRQFDLAWQYGPCTGITRLQRWCRAKQMGLEPPPEVWQVLKTHPGDPRFQCSLWHLYPL

Biological target: PCNA (Homo sapiens, UniProt P12004)
Sequence (P12004 whole entry): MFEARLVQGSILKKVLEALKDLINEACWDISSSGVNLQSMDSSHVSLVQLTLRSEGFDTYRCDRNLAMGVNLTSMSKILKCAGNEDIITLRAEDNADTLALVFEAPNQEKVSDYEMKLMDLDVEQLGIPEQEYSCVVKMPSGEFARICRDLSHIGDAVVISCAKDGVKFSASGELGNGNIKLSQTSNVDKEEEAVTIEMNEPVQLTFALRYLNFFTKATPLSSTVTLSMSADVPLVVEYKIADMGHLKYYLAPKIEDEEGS
Test: enzyme activity assay

Binder | Kd [nM]
B1 | 73
B2 | 8.7
